Target: human acid α-glucosidase (GAA), 123-200 fragment of the protease-treated enzyme (human, UniProt P10253 123-200)
Experiment: crystal structure

binding result: binds
B1: human acid α-glucosidase (GAA), 80-115 fragment of the protease-treated enzyme (domain or fragment)
chain: not shown

— publication doi:10.1101/212837 (bioRxiv, 2017)
